Assay results from US20090155304A1 (OSEL, published 2009).

What was measured:
[1] = molecular target: gp120 of CXCR4-tropic HIV-1 IIIB (on cell-free virus) (HIV-1 IIIB); assay: cell-based or functional assay
[2] = molecular target: gp120 of CCR5-tropic HIV-1 BaL (on cell-free virus) (HIV-1 BaL); assay: cell-based or functional assay

B1: Lactobacillus-derived full-length APVT-CV-N (P51G) (other)
chain: APVTLGKFSQTCYNSAIQGSVLTSTCERTNGGYNTSSIDLNSVIENVDGSLKWQGSNFIETCRNTQLAGSSELAAECKTRAQQFVSTKINLDDHIANIDGTLKYE
[1]
  IC50, inhibition of CXCR4-tropic HIVIIIB (HeLa-LTR-beta-gal X4-tropic attachment assay): < 3 nM
[2]
  IC50, inhibition of CCR5-tropic HIVBaL infection (MAGI-R5-LTR-beta-gal attachment inhibition assay): 0.3 nM
